Reference: patent publication US20250333441A1, “POLYPEPTIDE INHIBITORS AND USES THEREOF” (Neuracle Science Co., Ltd., priority 2021, published 2025)

Assays:
[1] = molecular target: binding of FAM19A5 protein to full-length ectodomain of the LRRC4B protein (amino acids 36-576)-hFc (Homo sapiens, UniProt Q7Z5A7); assay: Competitive inhibition assay, plate coated with full-length LRRC4B ectodomain; details: 100 nM coated ectodomain; FAM19A5 5 ng/mL; increasing concentrations
Protocol: Next, to further assess the role that the binding domain of the LRRC4B protein has on the interaction between FAM19A5 protein and members of the LRRC4 protein family, a competitive inhibition assay was used to determine whether different LRRC4B deletion constructs from Example 2 could inhibit the binding of FAM19A5 to the full-length ectodomain of the LRRC4B protein (i.e., amino acids 36-576 of SEQ ID NO: 2; SEQ ID NO: 5). Briefly, 100 nM of the full-length ectodomain of the LRRC4B protein was used to coat a plate, and then recombinant FAM19A5 protein (5 ng/mL) was added to the plate in combination with the following LRRC4B deletion constructs (increasing concentrations): (1) LRRC4B (453-576) (i.e., construct #11 in Table 6); (2) LRRC4B (453-576) mutant (comprises alanine substitutions at positions 488 and 489 of SEQ ID NO: 2; SEQ ID NO: 16); (3) LRRC4B (484-576) (i.e., construct #12 in Table 6); (4) LRRC4B (482-576); (5) LRRC4B (482-497); and (6) LRRC4B (498-576). The plates were incubated at 37° C., and then, the amount of FAM19A5 bound to the coated LRRC4B ectodomain protein was measured using H1RP-conjugated anti-FAM19A5 (1-65) antibody. […]

FAM19A5 protein [2] = molecular target: T1, FAM19A5 protein (Homo sapiens, UniProt Q7Z5A7); assay: Co-immunoprecipitation of FLAG-tagged LRRC4 family constructs with recombinant FAM19A5 in HEK293 cells; assay type: binding; details: HEK293 cells expressing FLAG-tagged construct, recombinant FAM19A5 protein (1 μM) 30 minutes; anti-FLAG immunoprecipitation
T1 sequence (Q7Z5A7 44-132): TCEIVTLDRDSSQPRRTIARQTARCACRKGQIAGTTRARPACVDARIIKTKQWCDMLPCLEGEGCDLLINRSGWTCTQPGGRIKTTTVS
Protocol: To better understand the interaction between FAM19A5 and members of the LRRC4 protein family, HEK293 cells were modified to express a FLAG-tagged member of the LRRC4 protein family, i.e., LRRC4C protein, LRRC4 protein, or LRRC4B protein. Then, the HEK293 cells or primary cortical neurons were treated with recombinant FAM19A5 protein (1 μM) for 30 minutes, and the binding between FAM19A5 protein and the different members of the LRRC4 protein family was assessed using both co-immunoprecipitation and immunofluorescence assays.
For the co-immunoprecipitation assay, cell lysates from the different FAM19A5-treated HEK293 cells were collected and immunoprecipitated with an anti-FLAG antibody, anti-FAM19A5 (1-65) antibody, or a human IgG antibody (control). Immunoprecipitated proteins were immunoblotted with anti-FLAG and anti-FAM19A5 (3-2) antibodies. For the immunofluorescence assay, the HEK293 cells treated with the recombinant FAM19A5 protein were immunostained with anti-FAM19A5 (3-2) (to detect FAM19A5 protein expression) and anti-FLAG antibodies (to detect member of the LRRC4 protein family). The primary cortical neurons treated with the recombinant FAM19A5 protein were immunostained with anti-FAM19A5 (3-2) and anti-LRRC4B antibodies. The nuclei were stained with Hoechst33342 (blue).
To determine the specific motif or domain of the LRRC4B protein that is responsible for the binding to a FAM19A5 protein, various FLAG-tagged LRRC4B deletion constructs were generated (see Table 6 below). HEK293 cells were transfected with the different deletion constructs and then treated with recombinant FAM19A5 protein as described in Example 1. Then, the cell lysates from the different HEK293 cells were immunoprecipitated with the anti-FLAG antibody. The immunoprecipitated proteins were immunoblotted with anti-FLAG and anti-FAM19A5 (3-2) antibodies.
As described in Example 2, all members of the LRRC4 protein family were capable of binding to FAM19A5 protein to varying degrees. Therefore, to compare the bindings domains, the amino acid sequences of the LRRC4B, LRRC4, and LRRC4C proteins were aligned. […] Therefore, to assess whether the corresponding positions of LRRC4 and LRRC4C were important in the binding of these proteins to FAM19A5 protein, cDNAs encoding either (i) LRRC4C protein fragment (amino acids 354-527 of SEQ ID NO: 3; SEQ ID NO: 66) or (ii) LRRC4 protein fragment (amino acids 353-527 of SEQ ID NO: 1; SEQ ID NO: 67) were constructed (see Table 7). HEK293 cells were transfected to express either of the protein fragments and then treated with recombinant FAM19A5 protein as described in Example 1. Then, the cell lysates from the different HEK293 cells were immunoprecipitated with the anti-FLAG antibody. The immunoprecipitated proteins were immunoblotted with anti-FLAG and anti-FAM19A5 (3-2) antibodies.

FAM19A5 protein [3] = molecular target: T1, FAM19A5 protein; assay: ELISA binding of recombinant FAM19A5 to coated LRRC4 family ectodomains, fragments and FB peptides; details: coated protein or peptide, FAM19A5 up to 10 nM
Protocol: Next, to confirm the above co-immunoprecipitation results, an ELISA assay was used to measure the binding of the FAM19A5 protein to either the full-length ectodomain of members of LRRC4 protein family or various LRRC4B ectodomain protein fragments. Specifically, an ELISA plate was coated with one of the following LRRC4B ectodomain protein, which was conjugated to human Fc (100 nM/well): (1) full-length ectodomain of LRRC4 protein (amino acid residues 39-527 of SEQ ID NO: 1) (SEQ ID NO: 4); (2) full-length ectodomain of LRRC4B protein (amino acids 36-576 of SEQ ID NO: 2; i.e., construct #7 in Table 6) (SEQ ID NO: 5); (3) full-length ectodomain of LRRC4C protein (amino acids 45-527 of SEQ ID NO: 3) (SEQ ID NO: 6); (4) LRRC4B ectodomain fragment (amino acids 453-576 of SEQ ID NO: 2; i.e., construct #11 in Table 6) (SEQ ID NO: 7); (5) LRRC4B ectodomain fragment (amino acids 484-576 of SEQ ID NO: 2; i.e., construct #12 in Table 6) (SEQ ID NO: 8); (6) LRRC4B ectodomain fragment (amino acids 482-576 of SEQ ID NO: 2) (SEQ ID NO: 9); (7) LRRC4B ectodomain fragment (amino acids 482-497 of SEQ ID NO: 2) (SEQ ID NO: 10); and (8) LRRC4B ectodomain fragment (amino acids 498-576 of SEQ ID NO: 2; i.e., construct #13 in Table 6) (SEQ ID NO: 11). Then, recombinant FAM19A5 proteins (0.005, 0.01, 0.025, 0.05, 0.1, 0.25, 0.5, 1, 2.5, 5, and 10 nM) were added to the relevant wells, and the plates were incubated at 37° C. for 1 hour. Afterwards, the amount of LRRC4B-bound FAM19A5 protein was detected using […] anti-FAM19A5 (1-65) antibody.
As further confirmation, three synthetic polypeptides comprising amino acids 484-497 of SEQ ID NO: 2 (i.e., YTYFTTVTVETLET; SEQ ID NO: 65) were constructed: (1) FB-16 (GYTYFTTVTVETLETQ; SEQ ID NO: 17), (2) FB-20 ([…]; SEQ ID NO: 18), and (3) FB-28 ([…]; SEQ ID NO: 19). The peptides differed in their total length. The ability of these polypeptides to bind to recombinant FAM19A5 protein was assessed using an ELISA assay as described above.

binding of FAM19A5 protein to full-length ectodomain of the LRRC4B protein (amino acids 36-576)-hFc, sequence (Q7Z5A7 44-132): as above

Row | Molecule | inhibition of FAM19A5 binding to coated full-length LRRC4B ectodomain protein [1] | binding to FAM19A5 protein (co-immunoprecipitation) (FAM19A5 protein [2]) | binding to FAM19A5 protein (ELISA) (FAM19A5 protein [3])
1 | LRRC4B (482-497): LRRC4B ectodomain fragment, amino acids 482-497 of SEQ ID NO: 2 (SEQ ID NO: 10) (GGYTYFTTVTVETLET; left off: a dimerising Fc or GST) | able to inhibit the interaction |  | 
2 | LRRC4B (364-576): LRRC4B deletion construct, amino acids 364-576 of SEQ ID NO: 2 (SEQ ID NO: 61) (protein) PVIVEPPTDLNVTEGMAAELKCRTGTSMTSVNWLTPNGTLMTHGSYRVRISVLHDGTLNFTNVTVQDTGQYTCMVTNSAGNTTASATLNVSAVDPVAAGGTGSGGGGPGGSGGVGGGSGGYTYFTTVTVETLETQPGEEALQPRGTEKEPPGPTTDGVWGGGRPGDAAGPASSSTTAPAPRSSRPTEKAFTVPITDVTENALKDLDDVMKTTK |  | able to bind to the FAM19A5 protein | 
3 | LRRC4B (36-576): full-length ectodomain of LRRC4B protein, amino acids 36-576 of SEQ ID NO: 2 (SEQ ID NO: 5) (protein) AGGGGVAVTSAAGGGSPPATSCPVACSCSNQASRVICTRRDLAEVPASIPVNTRYLNLQENGIQVIRTDTFKHLRHLEILQLSKNLVRKIEVGAFNGLPSLNTLELFDNRLTTVPTQAFEYLSKLRELWLRNNPIESIPSYAFNRVPSLRRLDLGELKRLEYISEAAFEGLVNLRYLNLGMCNLKDIPNLTALVRLEELELSGNRLDLIRPGSFQGLTSLRKLWLMHAQVATIERNAFDDLKSLEELNLSHNNLMSLPHDLFTPLHRLERVHLNHNPWHCNCDVLWLSWWLKETVPSNTTCCARCHAPAGLKGRYIGELDQSHFTCYAPVIVEPPTDLNVTEGMAAELKCRTGTSMTSVNWLTPNGTLMTHGSYRVRISVLHDGTLNFTNVTVQDTGQYTCMVTNSAGNTTASATLNVSAVDPVAAGGTGSGGGGPGGSGGVGGGSGGYTYFTTVTVETLETQPGEEALQPRGTEKEPPGPTTDGVWGGGRPGDAAGPASSSTTAPAPRSSRPTEKAFTVPITDVTENALKDLDDVMKTTK |  | able to bind to the FAM19A5 protein | 
4 | LRRC4B (482-576): LRRC4B ectodomain fragment, amino acids 482-576 of SEQ ID NO: 2 (SEQ ID NO: 9) (protein) GGYTYFTTVTVETLETQPGEEALQPRGTEKEPPGPTTDGVWGGGRPGDAAGPASSSTTAPAPRSSRPTEKAFTVPITDVTENALKDLDDVMKTTK | able to inhibit the interaction |  | 
5 | LRRC4B (498-576): LRRC4B fragment, amino acids 498-576 of SEQ ID NO: 2 (SEQ ID NO: 11) (protein) QPGEEALQPRGTEKEPPGPTTDGVWGGGRPGDAAGPASSSTTAPAPRSSRPTEKAFTVPITDVTENALKDLDDVMKTTK | much inferior in their ability to inhibit the interaction |  | failed to bind to FAM19A5
6 | LRRC4B (453-713): FLAG-tagged LRRC4B deletion construct, amino acids 453-713 of SEQ ID NO: 2 (SEQ ID NO: 56) (protein, FLAG tag) VSAVDPVAAGGTGSGGGGPGGSGGVGGGSGGYTYFTTVTVETLETQPGEEALQPRGTEKEPPGPTTDGVWGGGRPGDAAGPASSSTTAPAPRSSRPTEKAFTVPITDVTENALKDLDDVMKTTKIIIGCFVAITFMAAVMLVAFYKLRKQHQLHKHHGPTRTVEIINVEDELPAASAVSVAAAAAVASGGGVGGDSHLALPALERDHLNHHHYVAAAFKAHYSSNPSGGGCGGKGPPGLNSIHEPLLFKSGSKENVQETQI |  | able to bind to the FAM19A5 protein | 
7 | LRRC4B (364-713): FLAG-tagged LRRC4B deletion construct, amino acids 364-713 of SEQ ID NO: 2 (SEQ ID NO: 55) (protein, FLAG tag) PVIVEPPTDLNVTEGMAAELKCRTGTSMTSVNWLTPNGTLMTHGSYRVRISVLHDGTLNFTNVTVQDTGQYTCMVTNSAGNTTASATLNVSAVDPVAAGGTGSGGGGPGGSGGVGGGSGGYTYFTTVTVETLETQPGEEALQPRGTEKEPPGPTTDGVWGGGRPGDAAGPASSSTTAPAPRSSRPTEKAFTVPITDVTENALKDLDDVMKTTKIIIGCFVAITFMAAVMLVAFYKLRKQHQLHKHHGPTRTVEIINVEDELPAASAVSVAAAAAVASGGGVGGDSHLALPALERDHLNHHHYVAAAFKAHYSSNPSGGGCGGKGPPGLNSIHEPLLFKSGSKENVQETQI |  | able to bind to the FAM19A5 protein | 
